Source: patent publication US9789196B2, “Site-specific insulin-polymer conjugates” (AntriaBio, Inc., priority 2003, dated 2017)

Tests used:
[1] = In vitro release of PEG-insulin from PLGA microspheres; format: physicochemical; settings: PLGA 45:55 microspheres, nominal core load 25 wt %
Procedure: A sample of 15 mg […] PEG-insulin microspheres (14.1% drug content, PLGA 45:55; 0.15 dl/g IV, acid end groups) was suspended in 1.5 ml phosphate buffered saline (pH 7.4, 0.02% sodium azide and 0.02% Tween20) and incubated at 37° C. The supernatant was withdrawn at intervals and analyzed by RP HPLC for released PEG-insulin. The buffer was replaced with fresh PBS and the incubation continued. The data were analyzed for cumulative release as a function of incubation time (FIG. 4). Less than 1.0% of the PEG-insulin is released in the first day and over 95% is released within 18 days. The low “burst” release, high total release and duration over approximately a two-week period are highly desired features of a sustained release insulin formulation.

[2] = Characterization of PEG-insulin PLGA microspheres (coreload, encapsulation efficiency by RP-HPLC); format: physicochemical; settings: PLGA 45:55 L:G, 0.15 dL/g, acid end group microspheres, nominal core load 25 wt %
Procedure: PEG-insulin F5000 (50 mg) was dissolved in 1 ml methylene chloride. The solution was added to a volume of 1 ml methylene chloride containing 150 mg PLGA 45:55 (lac:gly), 0.15 dl/g IV with acid end groups. The methylene chloride solution was added to 5 ml water containing 1% poly(vinyl alcohol) in a 15 ml centrifuge tube and vortex-mixed to form an emulsion. The emulsion was added to 100 ml of water containing 0.3% poly(vinyl alcohol) and stirred for 3 hrs to evaporate the methylene chloride. The hardened microspheres were collected by vacuum filtration on Whatman #1 filter paper and dried.
The PEG-insulin microspheres' surface morphology and particle size distribution were examined by scanning electron microscope and laser-light scattering particle size analysis, respectively. Analytical reverse phase HPLC was used to quantify the amount of PEG-insulin conjugate encapsulated within the polymer microspheres. Prior to HPLC analysis, a measured quantity of microspheres was dissolved in a volume of acetonitrile, and an equivalent volume of 0.1% TFA in water was added to precipitate the polymer and extract the conjugate into aqueous solution. K2000, K5000, K10000, K20000 and F5000-A were also encapsulated using this method. The results of these tests are collected in Table 1, which lists the PEG-insulin content in % (w/w) of the total microsphere and the encapsulation efficiency, defined as weight of PEG-insulin encapsulated/weight of PEG-insulin added initially. Relatively high drug content up to 28.3% and encapsulation efficiency, up to 100%, were achieved, making the product clinically useful due to reduced total dose required, and commercially attractive due to low losses of starting material. In addition, microspheres were prepared using polymers of varying lactide:glycolide ratios (50:[…]), molecular weights (6.5-24 kDa), intrinsic viscosities (0.09-0.27 dL/g), or terminal ester groups (methyl and lauryl), with a wide range of drug loadings (5-35 wt %).
Microspheres were prepared with PLGA (45:55 L:G, 0.15 dL/g, acid end group) to a nominal core load of 25 wt %.

[3] = tested on: fasted Sprague-Dawley rats; assay: Pharmacodynamics of PEG-insulin conjugates after intravenous injection to normal rats (blood glucose); format: in vivo, rat; settings: 0.3 IU/kg equivalent; for suppression of glucose levels relative to normal human insulin: tail vein injection, fasted Sprague-Dawley rats, 6 hrs, vs Humulin R
Procedure: The effects of PEGylation on insulin pharmacodynamics were investigated. These studies were conducted to evaluate the in vivo biological activity (ability to lower serum glucose) of conjugate formulations containing PEG-insulins differing in site of substitution (positional isomers) or PEG molecular weight, relative to a commercially available insulin formulation (Humulin R, Lilly). Blood glucose levels were measured for fasted Sprague-Dawley rats after intravenous administration of F5000, K2000, K5000, K10000, or HumulinR®. The equivalent of 0.3 IU/kg (based on protein concentration and corrected for the weight of the PEG as appropriate; assumes 25 IU/mg protein) were dissolved in normal saline and administered by tail vein injection; N=6 per group. Blood was drawn before test article injection and at intervals over a period of 6 hrs post injection. Serum was isolated by standard procedure and glucose levels were measured using an Accucheck Advantage (Boeringer Ingelheim) glucose meter.

rabbits = settings: calculated on a molar basis; cited from earlier work
liver enzymes = settings: cited from earlier work

Row | Substance | In vitro release, Initial burst [1] [%] | Coreload [2] [wt %] | Encapsulation Efficiency [2] [wt %] | duration of action ([3]; intravenous, normal rats) | suppression of glucose levels relative to normal human insulin [3] | In vitro release, Total [1] [%] | insulin effect on reduction of blood sugar levels (rabbits) [%] | stability to liver enzymes compared with native insulin (liver enzymes)
1 | K10000: branched mPEG2-SPA 10,000 Da attached to the amino group of LysB29 of insulin [Conjugate K10000] | 80 | 19 | 76 | exceed 6 hours | did not reduce glucose levels to the same extent as the other test articles |  |  | 
2 | K5000: PEG-5000 linked to insulin B chain Lys29 [Conjugate K5000] | 2 | 24 | 96 |  | as effective in suppressing the glucose levels in normal rats as equivalent doses of normal human insulin |  |  | 
3 | K2000: linear mPEG-SPA 2000 Da attached to the amino group of LysB29 of insulin [Conjugate K2000] | 6 | 24 | 96 |  | as effective in suppressing the glucose levels in normal rats as equivalent doses of normal human insulin |  |  | 
4 | F5000-A: probably F5000 made with mPEG(5000)-aldehyde, secondary amine bond at PheB1 (Example 5) [Conjugate F5000-A] | 20 | 21 | 85 |  |  | 97 |  | 
5 | K20000: branched mPEG2-SPA 20,000 Da attached to the amino group of LysB29 of insulin [Conjugate K20000] | 80 | 14 | 56 |  |  |  |  | 
6 | mPEG(5000)-PheB1-insulin [Conjugate F5000] | 2 | 24 | 96 |  | as effective in suppressing the glucose levels in normal rats as equivalent doses of normal human insulin |  |  | 
7 | mPEG(1500)-B1-insulin: prior-art site-specific PEG 1500 conjugate of insulin at residue PheB1 (Obermeier; Geiger; Ehrat) |  |  |  |  |  |  | 100 | far more stable (to liver enzymes)
